Experimental data from US20220323583A1 (MacroGenics, published 2022).

Legend:
Human CD123-His = target: T1, Human CD123-His (human, UniProt P26951 19-305, limits assumed); assay: kinetic binding measurement, method not stated
T1 construct: Only the label 'Human CD123-His' is printed; also called interleukin 3 receptor alpha; IL-3Ra; not shown: His tag
T1 sequence (looked up): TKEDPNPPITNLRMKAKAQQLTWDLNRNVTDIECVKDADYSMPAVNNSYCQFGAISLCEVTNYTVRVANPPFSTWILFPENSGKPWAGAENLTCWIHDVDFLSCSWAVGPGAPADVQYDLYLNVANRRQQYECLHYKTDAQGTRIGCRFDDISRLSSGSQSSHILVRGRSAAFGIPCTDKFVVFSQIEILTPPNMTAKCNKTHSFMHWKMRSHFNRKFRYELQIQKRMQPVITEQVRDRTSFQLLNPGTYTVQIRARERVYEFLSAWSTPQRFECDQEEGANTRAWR

Cynomolgus CD123-His = target: T2, Cynomolgus CD123-His (cynomolgus monkey); assay: kinetic binding measurement, method not stated
T2 construct: Only the label 'Cynomolgus CD123-His' is printed; also called cynomolgus monkey CD123

[1] = target: human CD123 on target cell lines (Kasumi-3, Molm13, THP-1, TF-1, RS4-11) (human, UniProt P26951 19-378); assay: cell-based or functional assay

B1: DART-A, sequence-optimized CD123×CD3 bispecific diabody (bispecific antibody)
chain 1: QAVVTQEPSLTVSPGGTVTLTCRSSTGAVTTSNYANWVQQKPGQAPRGLIGGTNKRAPWTPARFSGSLLGGKAALTITGAQAEDEADYYCALWYSNLWVFGGGTKLTVLGGGGSGGGGEVQLVQSGAELKKPGASVKVSCKASGYTFTDYYMKWVRQAPGQGLEWIGDIIPSNGATFYNQKFKGRVTITVDKSTSTAYMELSSLRSEDTAVYYCARSHLLRASWFAYWGQGTLVTVSSGGCGGGEVAALEKEVAALEKEVAALEKEVAALEK
chain 2: DFVMTQSPDSLAVSLGERVTMSCKSSQSLLNSGNQKNYLTWYQQKPGQPPKLLIYWASTRESGVPDRFSGSGSGTDFTLTISSLQAEDVAVYYCQNDYSYPYTFGQGTKLEIKGGGSGGGGEVQLVESGGGLVQPGGSLRLSCAASGFTFSTYAMNWVRQAPGKGLEWVGRIRSKYNNYATYYADSVKDRFTISRDDSKNSLYLQMNSLKTEDTAVYYCVRHGNFGNSYVSWFAYWGQGTLVTVSSGGCGGGKVAALKEKVAALKEKVAALKEKVAALKE
notes: Two chains covalently bonded by a disulfide bond, no Fc; a second species lacks the C-terminal lysine; also called CD123×CD3 diabody; CD123 × CD3 Bi-Specific Diabodies
For B1, the Kd (Human CD123-His) was 0.13 nM, the koff (Human CD123-His) was 0.00019 s⁻¹ and the kon (Human CD123-His) was 1.6e+06 M⁻¹ s⁻¹. For the same binder, the Kd (Cynomolgus CD123-His) was 0.27 nM, the koff (Cynomolgus CD123-His) was 0.0004 s⁻¹ and the kon (Cynomolgus CD123-His) was 1.5e+06 M⁻¹ s⁻¹. The “EC50 of redirected killing, E:T = 10:1, Kasumi-3 target cells” value [1] was 0.01 ng/mL, the “EC50 of redirected killing, E:T = 10:1, Molm13 target cells” value [1] was 0.18 ng/mL and the “EC50 of redirected killing, E:T = 10:1, RS4-11 target cells” value [1] was 0.5 ng/mL. The “EC50 of redirected killing, E:T = 10:1, TF-1 target cells” value [1] was 0.46 ng/mL and the “EC50 of redirected killing, E:T = 10:1, THP-1 target cells” value [1] was 0.24 ng/mL.
